{"source": "paper PMC4476745", "molecular_target": "PAR-5 (UniProt P41932)", "assay": "IP anti-GFP, blot anti-PAR-5", "conditions": "reference: wild type ATGL-1::GFP; sites S303", "data": [{"substance": "ATGL-1 (from UniProt Q11186) ATGL-1(S303A)::GFP", "values": [{"measurement": "binding against the reference", "result": "weaker"}]}]}
